Measured values: paper PMC5823874

How the values were obtained:
[1] = molecular target: Calcium-independent phospholipase A2β, short variant (SH-iPLA2β, 752 amino acids), wild type (Chinese hamster (gene cloned from CHO cells)); assay: AUC; sedimentation velocity, 20 °C, 35,000 rpm, absorbance at 280 nm; 25 mM HEPES 7.5, 500 mM NaCl, 10% glycerol; c(s) model in SEDFIT
[2] = molecular target: FAM-labeled calmodulin T34C (UniProt P0DP23); assay: fluorescence polarisation; fluorescence anisotropy; 30 nM FAM-CaM with Ca2+, titrated with a twofold dilution series of iPLA2β; 25 mM HEPES 7.5, 150 mM NaCl, 10% glycerol; 15 min at 25 °C
[3] = molecular target: Calcium-independent phospholipase A2β, short variant (SH-iPLA2β, 752 amino acids), wild type (Chinese hamster (gene cloned from CHO cells))

| Substance | stoichiometry N [1] | Kd [2] | Ki of inhibition of iPLA2β enzymatic activity by CaM in the presence of Ca2+ (fluorogenic assay with Pyrene-PC liposomes) [3] |
| --- | --- | --- | --- |
| Calcium-independent phospholipase A2β, short variant (SH-iPLA2β, 752 amino acids), wild type (enzyme) | 2 | 112 nM | – |
| Calmodulin (CaM), unmodified (from UniProt P0DP23 1-149) (natural protein) | – | – | 23 nM |
| iPLA2β W695E mutant (enzyme) | – | > 1400 nM | – |
